According to patent US20260109761A1 (IP2IPO INNOVATIONS, published 2026):

Target: T1, huZIP12-ECD-GST (human, UniProt Q504Y0 24-202)
T1 construct: also called hZIP12-ECD-GST; human ZIP12-ECD-GST; not shown: glutathione S-transferase (GST) tag
Assay: HTRF competition: unlabelled antibody against Tb-labelled 51B12-parent on hZIP12-ECD-GST, detected with anti-GST-XL665
Protocol: Homogeneous Time Resolved Fluorescence (HTRF) assays were used to analyse the antibodies. A checkerboard assay was performed to validate the binding of the terbium labeled-antibody with hZIP12-ECD-GST. Serial dilutions (starting at 1000 ng/ml, semi-log dilutions) of Terbium-labeled 51B12-parent were incubated with serial dilutions of hZIP12-ECD-GST (starting at 5000 ng/ml, semi-log dilutions) followed by incubation with anti-GST-XL665. After excitation (320 nm), emission signals were obtained and HTRF ratio was calculated (665 nm/615 nm, Panel A). Signal/background ratios (S/B) were calculated from the HTRF ratios (0 ng/ml hZIP12-ECD-GST as background signal) and plotted against the Tb-51B12-parent concentration. The combinations 500 ng/ml hZIP12-ECD-GST+50 ng Tb-Ab, 150 ng/ml hZIP12-ECD-GST+50 ng Tb-Ab and 50 ng/ml hZIP12-ECD-GST+50 ng Tb-Ab were chosen as range for the competition assay. For the HTRF assay, 150 ng/ml hZIP12-ECD-GST+30 ng/ml Tb-51B12 was selected.

T1 sequence (Q504Y0 24-202): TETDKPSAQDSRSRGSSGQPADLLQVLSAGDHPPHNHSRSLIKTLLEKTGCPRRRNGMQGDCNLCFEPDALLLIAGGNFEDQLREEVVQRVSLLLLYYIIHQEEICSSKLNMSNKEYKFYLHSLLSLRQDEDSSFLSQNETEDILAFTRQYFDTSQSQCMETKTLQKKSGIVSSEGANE

| Binder | IC50 (read off the curve) [mg/L] |
| --- | --- |
| H2_T63Y_VL-par (antibody, V domains shown, Fc null human IgG1 / human kappa) VH: QVQLVESGGGVVQPGRSLRLSCAASGFTFSDYGMHWVRQAPGKGLEWVAYISSGGTTIYYADYVKGRFTISRDNSKNTLYLQMNSLRAEDTAVYYCARWTNLYAMDYWGQGTTVTVSS VL: DIVLTQSPDSLAVSLGERATINCRASKSVSTSGYSYMHWYQQKPGQPPKFLIYLASNLESGVPDRFSGSGSGTDFTLTISSLQAEDVAVYYCQHSREVPYTFGGGTKVEIKR | ~0.2 |
| H3_M105P_L2 (antibody, V domains shown, Fc null human IgG1 / human kappa) VH: QVQLVESGGGVVQPGRSLRLSCAASGFTFSDYGMHWVRQAPGKGLEWVAYISSGGTTIYYADTVKGRFTISRDNSKNTLYLQMNSLRAEDTAVYYCARWTNLYAPDYWGQGTTVTVSS VL: DIVLTQSPDSLAVSLGERATINCRASKSVSTSGYSYMHWYQQKPGQPPKFLIYLASNKESGVPDRFSGSGSGTDFTLTISSLQAEDVAVYYCQHSREVPYTFGGGTKVEIKR | ~0.2 |
| H3_W99H_VL-par (antibody, V domains shown, Fc null human IgG1 / human kappa) VH: QVQLVESGGGVVQPGRSLRLSCAASGFTFSDYGMHWVRQAPGKGLEWVAYISSGGTTIYYADTVKGRFTISRDNSKNTLYLQMNSLRAEDTAVYYCARHTNLYAMDYWGQGTTVTVSS VL: DIVLTQSPDSLAVSLGERATINCRASKSVSTSGYSYMHWYQQKPGQPPKFLIYLASNLESGVPDRFSGSGSGTDFTLTISSLQAEDVAVYYCQHSREVPYTFGGGTKVEIKR | ~0.06 |
| H2_Y60K_L2 (antibody, V domains shown, Fc null human IgG1 / human kappa) VH: QVQLVESGGGVVQPGRSLRLSCAASGFTFSDYGMHWVRQAPGKGLEWVAYISSGGTTIYKADTVKGRFTISRDNSKNTLYLQMNSLRAEDTAVYYCARWTNLYAMDYWGQGTTVTVSS VL: DIVLTQSPDSLAVSLGERATINCRASKSVSTSGYSYMHWYQQKPGQPPKFLIYLASNKESGVPDRFSGSGSGTDFTLTISSLQAEDVAVYYCQHSREVPYTFGGGTKVEIKR | ~0.06 |
